In patent US20030199040A1 (IMMUNEX, published 2003):

Target: monkey IL-1Rrp1 endogenous to COS7 cells (monkey)
Assay: cell-based or functional assay

increase in NFκB activity (NFκB-Luc reporter) in COS7 cells transfected with hAcPL alone and stimulated with hIL-18: 8 fold
B1: hAcPL expressed on COS7 cells (receptor)
chain: ERIKGFNISGCSTKKLLWTYSTRSEEEFVLFCDLPEPQKSHFCHRNRLSPKQVPEHLPFMGSNDLSDVQWYQQPSNGDPLEDIRKSYPHIIQDKCTLHFLTPGVNNSGSYICRPKMIKSPYDVACCVKMILEVKPQTNASCEYSASHKQDLLLGSTGSISCPSLSCQSDAQSPAVTWYKNGKLLSVERSNRIVVDEVYDYHQGTYVCDYTQSDTVSSWTVRAVVQVRTIVGDTKLKPDILDPVEDTLEVELGKPLTISCKARFGFERVFNPVIKWYIKDSDLEWEVSVPEAKSIKSTLKDEIIERNIILEKVTQRDLRRKFVCFVQNSIGNTTQSVQLKEKRGVVLLYILLGTIGTLVAVLAASALLYRHWIEIVLLYRTYQSKDQTLGDKKDFDAFVSYAKWSSFPSEATSSLSEEHLALSLFPDVLENKYGYSLCLLERDVAPGGVYAEDIVSIIKRSRRGIFILSPNYVNGPSIFELQAAVNLALDDQTLKLILIKFCYFQEPESLPHLVKKALRVLPTVTWRGLKSVPPNSRFWAKMRYHMPVKNSQGFTWNQLRITSRIFQWKGLSRTETTGRSSQPKEW
